We go through two molecules from patent publication US20160303217A1 (published 2016).

Sequences and labels used below:
B1: porcine transferrin (ligand)
chain: VAQKTVRWCTISNQEANKCSSFRENMSKAVKNGPLVSCVKKSSYLDCIKAIRDKEADAVTLDAGLVFEAGLAPYNLKPVVAEFYGQKDNPQTHYYAVAVVKKGSNFQWNQLQGKRSCHTGLGRSAGWIIPMGLLYDQLPEPRKPIEKAVASFFSSSCVPCADPVNFPKLCQQCAGKGAEKCACSNHEPYFGYAGAFNCLKEDAGDVAFVKHSTVLENLPDKADRDQYELLCRDNTRRPVDDYENCYLAQVPSHAVVARSVDGQEDSIWELLNQAQEHFGRDKSPDFQLFSSSHGKDLLFKDSANGFLKIPSKMDSSLYLGYQYVTALRNLREEISPDSSKNECKKVRWCAIGHEETQKCDAWSINSGGKIECVSAENTEDCIAKIVKGEADAMSLDGGYIYIAGKCGLVPVLAENYKTEGENCVNTPEKGYLAVAVVKKSSGPDLNWNNLKGKKSCHTAVDRTAGWNIPMGLLYNKINSCKFDQFFGEGCAPGSQRNSSLCALCIGSERAPGRECLANNHERYYGYTGAFRCLVEKGDVAFVKDQVVQQNTDGKNKDDWAKDLKQMDFELLCQNGAREPVDNAENCHLARAPNHAVVARDDKVTCVAEELLKQQAQFGRHVTDCSSSFCMFKSNTKDLLFRDDTQCLARVGKTTYESYLGADYITAVANLRKCSTSKLLEACTFHSAKNPRVETTT

Experiment [1] concerns the target A. pleuropneumoniae TbpB 26-528 (amino acid 26-528) derived from strain H87, purified recombinant truncated …. The experiment is described as follows: SPR. (Surface plasmon resonance follows binding to a sensor surface in real time, without labels.)
Experiment [2] addresses T1, A. pleuropneumoniae TbpB 20-528 (amino acid 20-528) derived from strain H49, purified recombinant truncated …. Briefly: SPR.
In experiment [3] the target is T1, A. pleuropneumoniae TbpB 20-528 (amino …). Briefly: ITC.
Experiment [4] deals with B1. Briefly: BLI.

Take B1: the Kd (usually the free concentration of one partner at which half of the binding sites on the other are occupied at equilibrium, for simple one-to-one binding) in experiment [1] was determined as 0.06 µM; in experiment [2], 0.044 µM; in experiment [3], 0.055 µM.

B2: H. parasuis TbpB 27-577 (amino acid 27-577) derived from the Nagasaki strain Hp5, purified recombinant truncated protein (protein)
chain: FDLEDVQPNKTTGVSKEEYQDVETDKKVKEQLGELMEPALGYVVKVPVSQSGARRTEISNPEAITDEDLKKIPNHETIKSVAEQNYGWVVDKTADKTMKYVRSGYAIDVDHYGTRDKGYVFYKGINPSKELPQGLVLTYQGEWDFTSDANLDAKRPNSNPEFNGYGPGQRIATTSANAKGRTYTSEFEVDFSAKKLKGKLNSKTANTESLERYSIEAEPKGNRFRGKAIAKDTSDAILGKSSDYLEGGFYGPKAEELAGKFITNDKSLFAVFSAKHNGSNVDTVRIIDASKIDLTHFNSSELTNFGDASVLIIDGKKMDLAGTDFKNSKTIEINGKTMVAVACCSNLEYMKFGQLWQKEGETAKDNSLFLQGERTTTDKMPKGGNYKYIGTWDAQVSKENNWVATADDDRKAGYRTEFDVDFGNKNLSGKLFDKNGVNPVFTVDAKINGNGFTGKAKTSDAGFALDSDSSRYDNVKFSDVAVNGGFYGPTAAELGGQFFHKSDNGSVGAIFGAKRQVKK
In turn, B2 showed a Kd in experiment [4] of 0.021 µM.
